This data set in a line: amyloid nucleation score (Sup35N fusion, yeast selection) (log enrichment); library NNK2; higher = more nucleation; inactive = no reads after selection. The procedure, abridged:
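Sup35N was fused to peptides of 20 random codons and expressed in psi-negative yeast, which were induced with 100 μM copper sulfate for 24 hours and then grown on medium lacking adenine and uracil for 7 days at 30°C. Plasmid inserts from input and output were sequenced on Illumina. The nucleation score is the DiMSum log enrichment of output over input reads, centred on the mode score of non-aggregating sequences. Sequences with under 100 input reads were left out, and random libraries had three technical output replicates.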

This is an account of results in the supplement of paper PMC12042874.

± gives the uncertainty stated by the source.

With LVLRQLVR, the amyloid nucleation score result was “inactive”.
On to DSGVEMYLFNSRFLRSLGND, for which the amyloid nucleation score was 3.65 ± 0.052.
For VSLIFQIRLRHRLTGAQMKR, the amyloid nucleation score worked out at 0.762 ± 0.37.
GRELRTVRNAGPFDQWVGVS: the amyloid nucleation score came out at 5.79 ± 0.086.
Substance KLQSCCIF displayed an amyloid nucleation score of 6.23 ± 0.084.
For SSTVCCHALVCSVSNFGFTV, the amyloid nucleation score was determined as 9.783 ± 0.038.
The substance LFSALFGRW registered an amyloid nucleation score of 4.26 ± 0.05.
As to SRSILLKAGWI, the amyloid nucleation score entry is “inactive”.
The result for LVSYNITFEYHNGKGCGEYG reads 3.63 ± 0.12.
On to TLWLMPDLRTRLEAGCRYKT, for which the amyloid nucleation score is -0.08 ± 0.44.
Take SEVHSWANGKVLTLYSRMWL: the amyloid nucleation score came to 0.885 ± 0.28.
PIKCDRSFWRR came in with an amyloid nucleation score of 1.49 ± 0.22.
The result for ISPNALEAQMPTQCNYEDGE reads 0.451 ± 0.48; that for QIQVLGWSRKSLMDNKL, “inactive”; that for AKNVKKT, -0.575 ± 0.32.
In the case of IHDWKQSYVNVC it was 0.084 ± 0.45; in that of GSRARNLIASAQYYNG, “inactive”.
In turn, DNRGKLDWAPSSVVSVWLIC showed an amyloid nucleation score of 3.74 ± 0.089.
In the case of GCTCYWFS, the amyloid nucleation score was 1.63 ± 0.15.
Consider CHHGRYIQRVGYRLVPSAFQ, for which the amyloid nucleation score came out at 0.098 ± 1.
The substance HSVLEYFVTLCSNFLLWWVL returned an amyloid nucleation score of -0.192 ± 0.65.
TTTESMRIWPTNRFKRCTLQ showed an amyloid nucleation score of 0.582 ± 0.2.
FCLLIGLLFTYWLSINFAIT: the amyloid nucleation score entry was “inactive”.
Consider VRAYLQYR, for which the amyloid nucleation score was 0.094 ± 0.74.
In turn, LVTSCLQVEW came in with an amyloid nucleation score of 0.284 ± 0.28.
In the case of FGESTSEGYA it was 3.33 ± 0.12; in that of SDVSREVKV, -0.038 ± 0.37.
For the substance MYRVLSIKWDRHLTRVHIAW, the amyloid nucleation score result was “inactive”.
Consider GSYGQVHSWYVCDFPGWVLR, for which the amyloid nucleation score turned out to be 0.438 ± 0.57.
LSRVSE gave an amyloid nucleation score of -0.405 ± 0.39.
The result for YSSYYHNFFRW reads -0.277 ± 0.28; that for YYSSLTYCMLQWYSLFWWGH, 0.658 ± 0.51; that for MIIMQANDP, -0.302 ± 0.76.
Regarding LKDVGPYQRVRRGTVRYA, the amyloid nucleation score was determined as 0.756 ± 0.4.
The result for VSFWFVFFWMISTRSEMMDR reads -1.08 ± 0.53; that for VTLIRSSRVATSCHGGTLFC, 3.45 ± 0.092.
The substance LNWTTGFSDSAPVICPDTMH displayed an amyloid nucleation score of -1.56 ± 1.1.
The result for MRHSRHFVQYGWFDCGQSGS reads 1.02 ± 0.29; that for MSQGSKIRVTWARSGGTRRL, 3.08 ± 0.15.
On to DHRILILLTPQFSYDIWTVH, for which the amyloid nucleation score result is “inactive”.
For the substance WMLCLDLKANKMCLMVISME, the amyloid nucleation score was -1.32 ± 0.76.
Substance ELHLFHATPRY yielded an amyloid nucleation score of 6.61 ± 0.067.
In turn, TLMGNVRTCPPAGRRATTAS returned an amyloid nucleation score of 0.966 ± 0.22.
With CFNIQNFELNRVMNLFYCRY, the amyloid nucleation score is 6.37 ± 0.075.
For the substance YSDKHM, the amyloid nucleation score is -1.27 ± 0.64.
Take IREPSCWFLFFIKINAGDAV: the amyloid nucleation score entry is “inactive”.
As for GKVGWDCCISQIYCLDLFIP, the amyloid nucleation score was 8.292 ± 0.047.
In the case of FYAHYASHL, the amyloid nucleation score entry is “inactive”.
In the case of NNEFYRRYVGNYSLVMVMGN, the amyloid nucleation score is -0.088 ± 1.1.
As for LCDIIQAF, the amyloid nucleation score was -0.626 ± 1.1.
For HPGMDF, the amyloid nucleation score result was “inactive”.
For NGNIKFFHRMRRTRHVACLY, the amyloid nucleation score is 0.223 ± 0.39.
Take MTVLV: the amyloid nucleation score was 1.12 ± 0.26.
The result for RMFIVHSCSTWLTNNGLNHM reads 5.318 ± 0.036; that for PGSMPRRMSRCWSIGLDGEE, 1.3 ± 0.32.
NIQTWGSGHVSTSDG registered an amyloid nucleation score of 3.24 ± 0.089.
In the case of LLVAALSHGPGISRSVNSHP it was 5.91 ± 0.061; in that of SDTKCLHY, “inactive”; in that of SVVYSFTRMPVGIFLMISEL, -0.552 ± 0.35.
On to FWFIRTRAGDWCPSSSPRMF, for which the amyloid nucleation score is 0.149 ± 0.23.
CNVTIIYVPYGEWTTFYLRL displayed an amyloid nucleation score of 7.45 ± 0.082.
The result for ERFPDCCLFNLDVFVSVLNI reads 5.022 ± 0.027.
The result for NGFHCG reads “inactive”.
Substance RIATLSFDSAIIQVYLRGSG yielded an amyloid nucleation score of 7.028 ± 0.033.
SQCFERV gave an amyloid nucleation score of 0.637 ± 0.36.
The substance RLIACIRIVSVVVNAVSLKG gave an amyloid nucleation score of 1.79 ± 0.42.
Take LYENRQFFCQGFGRWCMKLL: the amyloid nucleation score stood at 0.45 ± 0.74.
ATMEGSAECVFTRDIKIFRH: the amyloid nucleation score result was “inactive”.
For the substance SSFRSLRSRHPPGTLPPDTP, the amyloid nucleation score turned out to be 0.919 ± 0.3.
With PSSVKWTRSPGMRTTNGEVC, the amyloid nucleation score was 1.36 ± 0.23.
In the case of KNSGSMIRWIFIRGSTTIEK, the amyloid nucleation score result is “inactive”.
As to LPGSYNYKGSHSQTNWFLDK, the amyloid nucleation score was -2.09 ± 1.
SGNAGLFNRARGSVVTAVLV came in with an amyloid nucleation score of 0.463 ± 0.64.
The result for VNIDGRDRDNFVNGRSIMLR reads “inactive”; that for YLWPALPR, 0.142 ± 0.46; that for TIKRLLKDFPLIFLRISGST, “inactive”.
Consider KHRWII, for which the amyloid nucleation score is -0.287 ± 0.3.
Consider VRTIF, for which the amyloid nucleation score entry is “inactive”.
For the substance IRYDLQQGQFPPTRMECLVL, the amyloid nucleation score came to 0.437 ± 0.27.
Substance RCFCG came in with an amyloid nucleation score of 0.226 ± 0.35.
The result for MFYLCLRVVFRLKSWDFCDK reads -0.271 ± 0.34; that for STSVWRGLSRPRNVQRRLDT, -0.985 ± 0.42; that for SHILSNVTYGLADVAFCACS, 7.542 ± 0.067.
HVCCLKLVRCAGGGFVVKHV yielded an amyloid nucleation score of 0.779 ± 0.18.
Substance MFGGQELCACLDKEGRTESG displayed an amyloid nucleation score of 5.09 ± 0.08.
For the substance SHNDISSRC, the amyloid nucleation score was -0.795 ± 0.49.
In the case of ESIGVINCYWIWATSIPLEG it was “inactive”.
In the case of VFKFMNMTYEYRAGKGITVH, the amyloid nucleation score entry was “inactive”.
Substance KRAMPLSLTSRRLWISSGTG returned an amyloid nucleation score of -0.708 ± 1.1.
SNVFEVGPMGPSR registered an amyloid nucleation score of 0.056 ± 0.5.
In the case of EALMSSTIYYVPCSRHLIMF it was -0.576 ± 0.63; in that of TRDAVGVLTLSSTLTTCSTC, -0.26 ± 0.35.
Regarding MANSTLRV, the amyloid nucleation score turned out to be 0.314 ± 0.39.
In the case of EGGLYNCYADTPTKVW it was -1.07 ± 0.74; in that of RVPIWRANIGKGSSIMPIFC, 0.009 ± 0.76; in that of VNRVTRPNECYACQYMFGRW, 1.19 ± 0.18.
With NSWWTVLFRFYKALSLPRAR, the amyloid nucleation score is -0.839 ± 0.78.
As for VGSSRFLRDGVTRGLSMSGS, the amyloid nucleation score is -1.07 ± 0.41.
Consider ASGSKDACGCATSCV, for which the amyloid nucleation score came out at 0.86 ± 0.13.
In the case of APRRVSERFGSIVWVRRNS it was -0.547 ± 0.55; in that of IGDSVGSDWTSTFMCDSVCR, -0.15 ± 0.42; in that of GSICAHGECF, 0.57 ± 0.81.
The substance PSTIGRMVVLACWSDICRRG showed an amyloid nucleation score of 8.88 ± 0.059.
